Results as given in doi:10.1101/2024.10.30.620894 (bioRxiv, 2024).

Tests used:
[1] = target: VLDLR(28-797)Δ(751-779)-C-tag (VLDLR ectodomain, VLDLR-ed) (human) (UniProt P98155); assay: ELISA
SEC = target: the molecule itself; assay: SEC

Molecule	Kd [1] [nM]	stoichiometry N (SEC)
receptor-associated protein (RAP) (from UniProt P30533 36-357) (natural protein)	1.2	
wild-type clusterin (WT-Clu) (natural protein, human, N-glycans (six in the whole protein) | N-glycans (six in the whole protein)) chain 1: DQTVSDNELQEMSNQGSKYVNKEIQNAVNGVKQIKTLIEKTNEERKTLLSNLEEAKKKKEDALNETRESETKLKELPGVCNETMMALWEECKPCLKQTCMKFYARVCRSGSGLVGRQLEEFLNQSSPFYFWMNGDRIDSLLENDRQQTHMLDVMQDHFSRASSIIDELFQDRFFTREPQDTYHYLPFSLPHRRPHFFFPKSRIVR chain 2: SLMPFSPYEPLNFHAMFQPFLEMIHEAQQAMDIHFHSPAFQHPPTEFIREGDDDRTVCREIRHNSTGCLRMKDQCDKCREILSVDCSTNNPSQAKLRRELDESLQVAERLTRKYNELLKSYQWKMLNTSSLLEQLNEQFNWVSRLANLTQGEDQYYLRVTTVASHTSDSDVPSGVTEVVVKLFDSDPITVTVPVEVSRKNPKFMETVAEKALQEYRKKHREE	80	2
